Data taken from article PMC6501848.

How the values were obtained:
[1] = biological target: human CAP2 with C-terminal GFP and Strep-tag II (human) (UniProt P40123); assay: co-purification
[2] = biological target: co-expressed CAP1-GFP/CAP2-GFP (human) (UniProt Q01518); assay: co-purification
[3] = biological target: human CAP1 with C-terminal GFP and Strep-tag II (human) (UniProt Q01518); assay: co-purification
[4] = biological target: CAP in the brain inhibitory fraction (CAP1 and CAP2 of mouse brain) (mouse (endogenous in brain))
[5] = biological target: human INF2-nonCAAX full-length, untagged (human); assay: AUC
[6] = biological target: GFP-Strep-tagged human INF2-nonCAAX full-length, purified (human)
[7] = biological target: INF2-Cterm labeled with tetramethylrhodamine (human) (UniProt Q27J81); assay: fluorescence polarisation

Chain of untagged CAP co-purifying with CAP-GFP (likely endogenous HEK293 CAP) (Q01518 whole entry): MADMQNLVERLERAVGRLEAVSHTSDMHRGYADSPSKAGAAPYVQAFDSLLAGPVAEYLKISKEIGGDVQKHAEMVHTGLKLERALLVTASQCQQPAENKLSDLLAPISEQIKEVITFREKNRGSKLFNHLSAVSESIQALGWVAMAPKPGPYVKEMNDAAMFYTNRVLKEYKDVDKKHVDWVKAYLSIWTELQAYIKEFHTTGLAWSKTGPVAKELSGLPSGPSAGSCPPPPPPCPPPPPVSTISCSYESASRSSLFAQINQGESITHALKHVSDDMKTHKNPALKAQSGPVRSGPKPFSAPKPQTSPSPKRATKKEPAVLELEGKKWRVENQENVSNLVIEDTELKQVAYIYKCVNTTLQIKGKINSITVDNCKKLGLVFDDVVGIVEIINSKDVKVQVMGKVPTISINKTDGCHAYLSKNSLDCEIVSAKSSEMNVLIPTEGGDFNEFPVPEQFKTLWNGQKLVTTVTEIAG
Chain of human CAP2 with C-terminal GFP and Strep-tag II (human) (P40123 whole entry): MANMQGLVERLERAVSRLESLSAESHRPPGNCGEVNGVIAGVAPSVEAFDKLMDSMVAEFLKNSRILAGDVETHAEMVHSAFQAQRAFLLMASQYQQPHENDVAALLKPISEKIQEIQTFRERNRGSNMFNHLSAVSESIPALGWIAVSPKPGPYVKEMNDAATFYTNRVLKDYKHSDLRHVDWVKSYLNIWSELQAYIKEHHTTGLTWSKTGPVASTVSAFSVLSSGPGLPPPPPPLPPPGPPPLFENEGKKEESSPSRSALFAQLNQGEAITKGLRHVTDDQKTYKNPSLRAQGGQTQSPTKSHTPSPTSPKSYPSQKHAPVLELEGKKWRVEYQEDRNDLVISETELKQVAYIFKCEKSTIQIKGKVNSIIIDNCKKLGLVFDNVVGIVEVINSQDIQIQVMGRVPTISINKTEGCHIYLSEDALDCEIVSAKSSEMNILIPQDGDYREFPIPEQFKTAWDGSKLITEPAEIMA
Chain of human CAP1 with C-terminal GFP and Strep-tag II (human) (Q01518 whole entry): as the sequence (Q01518 whole entry) above
Chain of co-expressed CAP1-GFP/CAP2-GFP (human) (Q01518 whole entry, chain 1 of 2): as the sequence (Q01518 whole entry) above
Chain of co-expressed CAP1-GFP/CAP2-GFP (human) (P40123 whole entry, chain 2 of 2, further chain): as the sequence (P40123 whole entry) above

## untagged CAP co-purifying with CAP-GFP (likely endogenous HEK293 CAP) (from UniProt Q01518 1-475) (natural protein)
[1]
  mole percentage compared to CAP-GFP: 16.3%
[2]
  mole percentage compared to CAP-GFP: 16.5%
[3]
  mole percentage compared to CAP-GFP: 16.8%

## actin of HEK293 cells co-purifying with recombinant CAP (from UniProt P60709 1-375) (natural protein)
[1]
  mole percentage compared to CAP-GFP: 88.1%
[2]
  mole percentage compared to CAP-GFP: 90.5%
[3]
  mole percentage compared to CAP-GFP: 82.5%

## mouse brain actin (from UniProt P60710 1-375) (natural protein)
[4]
  mole percentage compared to CAP: 107%

## human INF2-nonCAAX full-length, untagged (natural protein)
[5]
  stoichiometry N: 2

## untagged CAP2/actin complex purified from tubastatin A-treated 293 cells (from UniProt P40123;P60709)
[6]
  IC50 of inhibition of INF2-mediated actin polymerization, pyrene-actin assay: 263 nM
[7]
  Kd: 1820 nM
